Source: FireProtDB (doi:10.1073/pnas.0908565107)

B1: Alanine--glyoxylate aminotransferase, P21549 (parent)
chain: MASHKLLVTPPKALLKPLSIPNQLLLGPGPSNLPPRIMAAGGLQMIGSMSKDMYQIMDEIKEGIQYVFQTRNPLTLVISGSGHCALEAALVNVLEPGDSFLVGANGIWGQRAVDIGERIGARVHPMTKDPGGHYTLQEVEEGLAQHKPVLLFLTHGESSTGVLQPLDGFGELCHRYKCLLLVDSVASLGGTPLYMDRQGIDILYSGSQKALNAPPGTSLISFSDKAKKKMYSRKTKPFSFYLDIKWLANFWGCDDQPRMYHHTIPVISLYSLRESLALIAEQGLENSWRQHREAAAYLHGRLQALGLQLFVKDPALRLPTVTTVAVPAGYDWRDIVSYVIDHFDIEIMGGLGPSTGKVLRIGLLGCNATRENVDRVTEALRAALQHCPKKKL

Variants of: B1
Conditions: Homo sapiens; pH 7.4; Thermal; DSC; Potassium phosphate 100 mM; structure 1H0C; whole UniProt chain shown

Variant | Tm | change of melting temperature, mutant - wild type (higher = more stable)
MASHKLLVTPPKALLKPLSIPNQLLLGPGPSNLPPRIMAAVGLQMIGSMSKDMYQIMDEIKEGIQYVFQTRNPLTLVISGSGHCALEAALVNVLEPGDSFLVGANGIWGQRAVDIGERIGARVHPMTKDPGGHYTLQEVEEGLAQHKPVLLFLTHGESSTGVLQPLDGFGELCHRYKCLLLVDSVASLGGTPLYMDRQGIDILYSGSQKALNAPPGTSLISFSDKAKKKMYSRKTKPFSFYLDIKWLANFWGCDDQPRMYHHTIPVISLYSLRESLALIAEQGLENSWRQHREAAAYLHGRLQALGLQLFVKDPALRLPTVTTVAVPAGYDWRDIVSYVIDHFDIEIMGGLGPSTGKVLRIGLLGCNATRENVDRVTEALRAALQHCPKKKL [G41V] | 58.3 °C | -4.1 °C
